Where two headings read alike, the source gives them in different places. Non-standard residues stand in square brackets, D forms with d. No end group written: not given here. *: point of attachment. FITC = O=C1OC2(c3ccc(O)cc3Oc3cc(O)ccc32)c2ccc(NC(=S)*)cc21; pS = N[C@@H](COP(=O)(O)O)C(=O)O
Assays:
[1] = molecular target: KIX KIX (UniProt P45481); assay: NMR; conditions: cited from earlier work
[2] = molecular target: KIX KIX (UniProt P45481); conditions: cited from earlier work
[3] = molecular target: T1, KIX domain of CREB-binding protein (UniProt P45481 586-665); assay: fluorescence polarisation; fluorescence anisotropy equilibrium binding; 1 uM FITC-peptide with varying KIX, 30 min, 10 C; 100 mM sodium phosphate pH 7.5, 0.05% Tween; conditions: both partners purified
[4] = molecular target: T1, KIX domain of CREB-binding protein; assay: stopped-flow fluorescence association kinetics; pseudo-first-order, KIX in 10-fold or larger excess over FITC-peptide; double exponential fits; 10 C; 100 mM sodium phosphate pH 7.5, 0.05% Tween; conditions: both partners purified
[5] = molecular target: T1, KIX domain of CREB-binding protein; assay: stopped-flow fluorescence out-competition dissociation kinetics; KIX:FITC-(p)KID complex rapidly mixed with unlabeled cMybTAD; single exponentials; asymptote gives k_diss; 10 C; 100 mM sodium phosphate pH 7.5, 0.05% Tween; conditions: both partners purified
[6] = molecular target: T1, KIX domain of CREB-binding protein; assay: as above; conditions: both partners purified; remark: listed apart in the source

T1 sequence (P45481 586-665): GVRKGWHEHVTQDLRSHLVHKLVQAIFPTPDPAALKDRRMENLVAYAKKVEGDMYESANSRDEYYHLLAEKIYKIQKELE
KIX KIX, sequence (P45481 586-665): as above
pKID29 KID, sequence (P16220 105-133): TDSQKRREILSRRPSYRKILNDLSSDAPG
pKID KID, sequence (P15337 119-146): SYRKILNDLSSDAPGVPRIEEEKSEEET

| Kd [3] | k_ass,fast (fast phase of association) [4] | k_ass,slow (slow phase of association) [4] | half-life of the complex [5] | koff [6] | Molecule | Kd [1] | Kd [2] |
| --- | --- | --- | --- | --- | --- | --- | --- |
|  |  |  |  |  | pKID KID (from UniProt P15337) | 1.3 µM |  |
|  |  |  |  |  | pKID29 KID (from UniProt P16220) |  | 8.3 µM |
| 29 ± 1 µM | 7.6e+06 ± 800000 M⁻¹ s⁻¹ | 21.2 ± 2.4 s⁻¹ | ~0.01 s | 66.3 ± 4.9 s⁻¹ | {FITC}-DSVTDSQKRREILSRRPSYRKILNDLSSDAP (peptide, UniProt P15337-1 116-146, looked up, also called unphosphorylated KID; source: synthetic peptide, bought: Biomatik) |  |  |
| 12.3 ± 0.5 µM | 4.4e+06 ± 200000 M⁻¹ s⁻¹ | 17 ± 1 s⁻¹ |  | 35.6 ± 2.2 s⁻¹ | {FITC}-DSVTDSQKRREILSRRPEYRKILNDLSSDAP (peptide, UniProt P15337-1 116-146, looked up, kinase inducible domain (KID) of CREB, UniProt P15337, residues 116-146, with S133E; also called the phosphomimetic; source: synthetic peptide, bought: Biomatik) [FITC-KID-S133E (KID of CREB, residues 116-146, S133E, N-terminus labeled with FITC)] |  |  |
| 0.11 µM | 7.3e+06 ± 300000 M⁻¹ s⁻¹ | 24.2 ± 1.4 s⁻¹ | ~1 s | 0.81 ± 0.01 s⁻¹ | {FITC}-DSVTDSQKRREILSRRP[pS]YRKILNDLSSDAP (peptide, UniProt P15337-1 116-146, looked up, kinase inducible domain (KID) of CREB, UniProt P15337, residues 116-146 (31 residues), phosphorylated at S133; source: synthetic peptide, bought: Biomatik) [FITC-pKID (phosphorylated KID of CREB, residues 116-146, N-terminus labeled with FITC)] |  |  |
